Test results taken from the supplement of paper PMC5998384.

Experiments:
HeLa Kyoto [1] = test: melting temperature (median over replicates), in situ; higher = more thermally stable
HeLa Kyoto [2] = test: thermal stability score vs G1/S (z-score of summed log2 fold changes over temperatures); higher = more thermally stable than in G1/S
HeLa Kyoto [3] = test: solubility in G1/S (NP-40 vs SDS abundance) (log2 ratio); higher = more soluble; details: cell cycle stage: G1/S
HeLa Kyoto [4] = test: solubility change mitosis vs G1/S (difference of NP-40 vs SDS log2 ratios) (log2 ratio difference); higher = more soluble in mitosis
[5] = cell cycle stage: early G1 (4.5 h after nocodazole release)
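Wherever melting temperature (median over replicates), in situ is given: HeLa Kyoto cells synchronized by double thymidine or nocodazole block, proteins quantified by TMT10plex mass spectrometry, three independent biological replicates.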
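Wherever solubility change mitosis vs G1/S (difference of NP-40 vs SDS log2 ratios) is given: synchronized HeLa Kyoto cells (double thymidine block for G1/S, nocodazole release for mitosis), protein amounts in NP-40 versus SDS lysates quantified by mass spectrometry, three biological replicates.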
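Wherever solubility in G1/S (NP-40 vs SDS abundance) is given: HeLa Kyoto cells arrested at G1/S by double thymidine block, proteins quantified by TMT10plex mass spectrometry in mild NP-40 versus SDS extracts, three biological replicates.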
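Wherever thermal stability score vs G1/S (z-score of summed log2 fold changes over temperatures) is given: synchronized HeLa Kyoto cells, proteins quantified by TMT10plex mass spectrometry, three biological replicates, mitosis taken 0.5 h after nocodazole release, G1/S directly after double thymidine block.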

| Sequence | melting temperature (HeLa Kyoto [1]; cell cycle stage: G1/S) [°C] | melting temperature (HeLa Kyoto [1]; cell cycle stage: mitosis) [°C] | thermal stability score (HeLa Kyoto [2]; [5]) | thermal stability score (HeLa Kyoto [2]; cell cycle stage: mitosis) | solubility in G1/S (log2) (HeLa Kyoto [3]) | solubility change mitosis (log2) (HeLa Kyoto [4]) |
| --- | --- | --- | --- | --- | --- | --- |
| MSFVAYEELIKEGDTAILSLGHGAMVAVRVQRGAQTQTRHGVLRHSVDLIGRPFGSKVTCGRGGWVYVLHPTPELWTLNLPHRTQILYSTDIALITMMLELRPGSVVCESGTGSGSVSHAIIRTIAPTGHLHTVEFHQQRAEKAREEFQEHRVGRWVTVRTQDVCRSGFGVSHVADAVFLDIPSPWEAVGHAWDALKVEGGRFCSFSPCIEQVQRTCQALAARGFSELSTLEVLPQVYNVRTVSLPPPDLGTGTDGPAGSDTSPFRSGTPMKEAVGHTGYLTFATKTPG [TRMT61A] | 55.4 | 57.5 | 0.944 | -0.546 | -0.0252 | -0.00636 |
| MGVWLNKDDYIRDLKRIILCFLIVYMAILVGTDQDFYSLLGVSKTASSREIRQAFKKLALKLHPDKNPNNPNAHGDFLKINRAYEVLKDEDLRKKYDKYGEKGLEDNQGGQYESWNYYRYDFGIYDDDPEIITLERREFDAAVNSGELWFVNFYSPGCSHCHDLAPTWRDFAKEVDGLLRIGAVNCGDDRMLCRMKGVNSYPSLFIFRSGMAPVKYHGDRSKESLVSFAMQHVRSTVTELWTGNFVNSIQTAFAAGIGWLITFCSKGGDCLTSQTRLRLSGMLDGLVNVGWMDCATQDNLCKSLDITTSTTAYFPPGATLNNKEKNSILFLNSLDAKEIYLEVIHNLPDFELLSANTLEDRLAHHRWLLFFHFGKNENSNDPELKKLKTLLKNDHIQVGRFDCSSAPDICSNLYVFQPSLAVFKGQGTKEYEIHHGKKILYDILAFAKESVNSHVTTLGPQNFPANDKEPWLVDFFAPWCPPCRALLPELRRASNLLYGQLKFGTLDCTVHEGLCNMYNIQAYPTTVVFNQSNIHEYEGHHSAEQILEFIEDLMNPSVVSLTPTTFNELVTQRKHNEVWMVDFYSPWCHPCQVLMPEWKRMARTLTGLINVGSIDCQQYHSFCAQENVQRYPEIRFFPPKSNKAYHYHSYNGWNRDAYSLRIWGLGFLPQVSTDLTPQTFSEKVLQGKNHWVIDFYAPWCGPCQNFAPEFELLARMIKGKVKAGKVDCQAYAQTCQKAGIRAYPTVKFYFYERAKRNFQEEQINTRDAKAIAALISEKLETLRNQGKRNKDEL [DNAJC10] | 54.7 | 55.4 | 3.17 | 4.65 | -0.000819 | -0.125 |
| MLRAGWLRGAAALALLLAARVVAAFEPITVGLAIGAASAITGYLSYNDIYCRFAECCREERPLNASALKLDLEEKLFGQHLATEVIFKALTGFRNNKNPKKPLTLSLHGWAGTGKNFVSQIVAENLHPKGLKSNFVHLFVSTLHFPHEQKIKLYQDQLQKWIRGNVSACANSVFIFDEMDKLHPGIIDAIKPFLDYYEQVDGVSYRKAIFIFLSNAGGDLITKTALDFWRAGRKREDIQLKDLEPVLSVGVFNNKHSGLWHSGLIDKNLIDYFIPFLPLEYRHVKMCVRAEMRARGSAIDEDIVTRVAEEMTFFPRDEKIYSDKGCKTVQSRLDFH [TOR1B] | 53.7 | 53.9 | 2.27 | 5.78 | 0.349 | -0.143 |
| MASSSPDSPCSCDCFVSVPPASAIPAVIFAKNSDRPRDEVQEVVFVPAGTHTPGSRLQCTYIEVEQVSKTHAVILSRPSWLWGAEMGANEHGVCIGNEAVWTKEPVGEGEALLGMDLLRLALERSSSAQEALHVITGLLEHYGQGGNCLEDAAPFSYHSTFLLADRTEAWVLETAGRLWAAQRIQEGARNISNQLSIGTDISAQHPELRTHAQAKGWWDGQGAFDFAQIFSLTQQPVRMEAAKARFQAGRELLRQRQGGITAEVMMGILRDKESGICMDSGGFRTTASMVSVLPQDPTQPCVHFLTATPDPSRSVFKPFIFGMGVAQAPQVLSPTFGAQDPVRTLPRFQTQVDRRHTLYRGHQAALGLMERDQDRGQQLQQKQQDLEQEGLEATQGLLAGEWAPPLWELGSLFQAFVKRESQAYA [SCRN2] | 51 | 51.1 | 0.593 | 0.947 | 0.282 | -0.201 |
